Experiment: Activity of UGT76G1_Sc for the conversion of Rebaudioside D to Rebaudioside M
Assay type: biochemical
Conditions: based on initial concentration of Rebaudioside D; 21 h.
Procedure: UGT76G1_Sc was prepared according to EXAMPLE 34. Activity tests were performed at 2 mL scale with 200 μL of lysate for the transformation of Rebaudioside D using 0.5 mM of substrate, 2.5 mM of UDP-Glucose and 3 mM MgCl2 in 50 mM Sodium Phosphate buffer at pH 7.2. Samples were taken and analyzed by HPLC according to the method of EXAMPLE 20.

B1: UGT76G1_Sc (protein, UniProt Q6VAB4 1-458, looked up)
UDP-glycosyltransferase 76G1: MENKTETTVRRRRRIILFPVPFQGHINPILQLANVLYSKGFSITIFHTNFNKPKTSNYPHFTFRFILDNDPQDERISNLPTHGPLAGMRIPIINEHGADELRRELELLMLASEEDEEVSCLITDALWYFAQSVADSLNLRRLVLMTSSLFNFHAHVSLPQFDELGYLDPDDKTRLEEQASGFPMLKVKDIKSAYSNWQILKEILGKMIKQTKASSGVIWNSFKELEESELETVIREIPAPSFLIPLPKHLTASSSSLLDHDRTVFQWLDQQPPSSVLYVSFGSTSEVDEKDFLEIARGLVDSKQSFLWVVRPGFVKGSTWVEPLPDGFLGERGRIVKWVPQQEVLAHGAIGAFWTHSGWNSTLESVCEGVPMIFSDFGLDQPLNARYMSDVLKVGVYLENGWERGEIANAIRRVMVDEEGEYIRQNARVLKQKADVSLMKGGSSYESLESLVSYISSL
modifications: expressed in Saccharomyces cerevisiae
In the case of B1, the “Rebaudioside M selectivity (Retention Time ~6.7 min)” value is reported as 100%.

Source: patent US11312984B2, “High-purity steviol glycosides” (PURECIRCLE SDN BHD, priority 2013, dated 2022)
